Data reported in US20030044858A1.

Legend:
[1] = target: T1, FcεRII (CD23) on IM9 cells (human) (UniProt P06734); test: FACS, 1.65 ug/ml, IM9 cells
T1 sequence (looked up): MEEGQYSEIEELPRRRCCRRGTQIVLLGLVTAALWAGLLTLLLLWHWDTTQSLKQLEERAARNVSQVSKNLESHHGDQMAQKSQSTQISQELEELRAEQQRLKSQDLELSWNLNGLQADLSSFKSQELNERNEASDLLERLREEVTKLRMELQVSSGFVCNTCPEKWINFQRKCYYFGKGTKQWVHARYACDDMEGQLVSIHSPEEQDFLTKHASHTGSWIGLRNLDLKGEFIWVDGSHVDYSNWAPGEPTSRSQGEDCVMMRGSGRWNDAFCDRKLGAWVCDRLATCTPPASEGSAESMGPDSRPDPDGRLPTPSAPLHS

[2] = target: FcεRI alpha chain on CHO 3D10 cells (UniProt P12319); test: FACS, 1.65 ug/ml, CHO 3D10 cells
[3] = target: T1, FcεRII (CD23) on IM9 cells (human); test: FACS, 5 ug/ml, IM9 cells
[4] = target: T1, FcεRII (CD23) on IM9 cells (human); test: FACS, 10 ug/ml, IM9 cells
[5] = target: T1, FcεRII (CD23) on IM9 cells (human); test: FACS, 0.1 ug/ml, IM9 cells
[6] = target: T1, FcεRII (CD23) on IM9 cells (human); test: FACS, 0.5 ug/ml, IM9 cells
[7] = target: FcεRI alpha chain on CHO 3D10 cells (UniProt P12319); test: FACS, 5 ug/ml, CHO 3D10 cells
[8] = target: FcεRI alpha chain on CHO 3D10 cells (UniProt P12319); test: FACS, 10 ug/ml, CHO 3D10 cells
[9] = target: FcεRI alpha chain on CHO 3D10 cells (UniProt P12319); test: FACS, 0.1 ug/ml, CHO 3D10 cells
[10] = target: FcεRI alpha chain on CHO 3D10 cells (UniProt P12319); test: FACS, 0.5 ug/ml, CHO 3D10 cells

Chain of FcεRI alpha chain on CHO 3D10 cells (P12319 26-257 limits assumed): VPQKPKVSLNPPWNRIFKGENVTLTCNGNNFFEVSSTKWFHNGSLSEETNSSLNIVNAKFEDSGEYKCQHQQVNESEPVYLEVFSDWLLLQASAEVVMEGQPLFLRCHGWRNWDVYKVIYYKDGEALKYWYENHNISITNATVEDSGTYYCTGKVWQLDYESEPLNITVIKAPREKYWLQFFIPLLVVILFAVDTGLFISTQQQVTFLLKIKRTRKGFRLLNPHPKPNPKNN
Chain of human IgE (U266 IgE) (P01854 whole entry): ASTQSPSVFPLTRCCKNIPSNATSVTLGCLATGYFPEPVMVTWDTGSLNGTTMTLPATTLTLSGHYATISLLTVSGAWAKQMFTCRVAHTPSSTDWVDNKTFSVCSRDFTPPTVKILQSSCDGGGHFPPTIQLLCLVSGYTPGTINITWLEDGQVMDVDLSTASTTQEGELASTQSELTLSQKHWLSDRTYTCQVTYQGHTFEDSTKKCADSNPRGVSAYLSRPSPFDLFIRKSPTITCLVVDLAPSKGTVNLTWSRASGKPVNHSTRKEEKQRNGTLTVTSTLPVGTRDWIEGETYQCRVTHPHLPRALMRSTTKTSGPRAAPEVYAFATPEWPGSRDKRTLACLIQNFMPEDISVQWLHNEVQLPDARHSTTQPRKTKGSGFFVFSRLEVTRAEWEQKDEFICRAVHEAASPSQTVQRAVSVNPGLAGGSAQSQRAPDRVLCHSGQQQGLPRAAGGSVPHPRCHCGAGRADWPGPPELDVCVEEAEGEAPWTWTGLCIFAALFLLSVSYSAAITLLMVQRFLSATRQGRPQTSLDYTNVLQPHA
Chain of human IgE mutant 13 (Fcε2: 329-331 and 334-336 to Ala) (P01854 other isoform, or with tags, fused parts or gaps, change not shown): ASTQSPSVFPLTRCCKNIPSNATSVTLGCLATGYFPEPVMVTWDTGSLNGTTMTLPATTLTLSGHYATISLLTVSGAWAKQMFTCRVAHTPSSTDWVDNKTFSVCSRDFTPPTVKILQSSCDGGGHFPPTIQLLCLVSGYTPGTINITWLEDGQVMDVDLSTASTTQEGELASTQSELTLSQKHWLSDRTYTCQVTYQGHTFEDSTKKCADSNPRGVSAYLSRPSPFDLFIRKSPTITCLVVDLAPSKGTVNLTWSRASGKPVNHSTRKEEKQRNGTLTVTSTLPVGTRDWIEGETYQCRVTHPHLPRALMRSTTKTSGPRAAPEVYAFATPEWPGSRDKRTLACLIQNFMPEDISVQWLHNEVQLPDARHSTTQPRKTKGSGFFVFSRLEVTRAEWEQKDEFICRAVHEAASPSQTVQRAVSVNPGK
Chain of human IgE mutant 12 (S471A, T473A) (P01854 other isoform, or with tags, fused parts or gaps, stated change not applied): as the sequence (P01854 other isoform, or with tags, fused parts or gaps, change not shown) above
Chain of human IgE mutant 11 (Q455A, R457A, T459A) (P01854 other isoform, or with tags, fused parts or gaps, stated change not applied): as the sequence (P01854 other isoform, or with tags, fused parts or gaps, change not shown) above
Chain of human IgE mutant 10 (T438A, T440A) (P01854 other isoform, or with tags, fused parts or gaps, stated change not applied): as the sequence (P01854 other isoform, or with tags, fused parts or gaps, change not shown) above
Chain of human IgE mutant 6 (β-strand D exchanged) (P01854 other isoform, or with tags, fused parts or gaps, change not shown): as above
Chain of human IgE mutant 1 (loop AB exchanged for human IgG1 loop) (P01854 other isoform, or with tags, fused parts or gaps, change not shown): as above
Chain of human IgE mutant 4 (loop EF exchanged) (P01854 other isoform, or with tags, fused parts or gaps, change not shown): as above
Chain of human IgE mutant 9 (N403A, T405A) (P01854 other isoform, or with tags, fused parts or gaps, stated change not applied): as the sequence (P01854 other isoform, or with tags, fused parts or gaps, change not shown) above
Chain of human IgE mutant 8 (T387A, T389A) (P01854 other isoform, or with tags, fused parts or gaps, stated change not applied): as the sequence (P01854 other isoform, or with tags, fused parts or gaps, change not shown) above
Chain of human IgE mutant 7 (383-385 RKS to AAA) (P01854 other isoform, or with tags, fused parts or gaps, change not shown): as above
Chain of human IgE mutant 3 (loop CD exchanged) (P01854 other isoform, or with tags, fused parts or gaps, change not shown): as above
Chain of human IgE mutant 2 (loop BC exchanged) (P01854 other isoform, or with tags, fused parts or gaps, change not shown): as above
Chain of human IgE mutant 5 (loop FG exchanged) (P01854 other isoform, or with tags, fused parts or gaps, change not shown): as above

Substance	% IM9 (+) [1] [%]	% CHO 3D10 (+) [2] [%]	further results
human IgE mutant 6 (β-strand D exchanged) (from UniProt P01854 1-428) (antibody)	71.6	1.4	–
human IgE mutant 7 (383-385 RKS to AAA) (from UniProt P01854 1-428) (antibody)	4.6	76.4	–
human IgE mutant 10 (T438A, T440A) (from UniProt P01854 1-428) (antibody)	84.8	67.5	–
human IgE mutant 4 (loop EF exchanged) (from UniProt P01854 1-428) (antibody)	9.2	4.9	–
human IgE mutant 9 (N403A, T405A) (from UniProt P01854 1-428) (antibody)	94.3	84.2	–
human IgE mutant 11 (Q455A, R457A, T459A) (from UniProt P01854 1-428) (antibody)	61.5	70.8	–
human IgE (U266 IgE) (from UniProt P01854 1-546) (antibody)	–	–	% IM9 (+) [3]: 82.6%; % IM9 (+) [4]: 92.5%; % IM9 (+) [5]: 1.7%; % IM9 (+) [6]: 4.6%; % CHO 3D10 (+) [7]: 89.9%; % CHO 3D10 (+) [8]: 90.3%; % CHO 3D10 (+) [9]: 15.8%; % CHO 3D10 (+) [10]: 59.6%
human IgE mutant 12 (S471A, T473A) (from UniProt P01854 1-428) (antibody)	90.3	84.7	–
human IgE mutant 13 (Fcε2: 329-331 and 334-336 to Ala) (from UniProt P01854 1-428) (antibody)	96.1	85.7	–
human IgE mutant 1 (loop AB exchanged for human IgG1 loop) (from UniProt P01854 1-428) (antibody)	4.3	1.7	–
human IgE mutant 3 (loop CD exchanged) (from UniProt P01854 1-428) (antibody)	1.2	32.3	–
human IgE mutant 8 (T387A, T389A) (from UniProt P01854 1-428) (antibody)	16.3	70.3	–
human IgE mutant 5 (loop FG exchanged) (from UniProt P01854 1-428) (antibody)	73.9	60.5	–
human IgE mutant 2 (loop BC exchanged) (from UniProt P01854 1-428) (antibody)	48.9	34.3	–
